Measurements as given in article PMC4670963.

Experiments:
Flag-tagged Sufu [1] = target: Flag-tagged Sufu (UniProt Q9UMX1); test: co-IP; As a2 but with co-expressed exogenous HA-Hck or kinase-inactive Hck-K269E; immunoprecipitated with anti-Flag; western blot with anti-HA, anti-Flag or 4G10
Flag-tagged Sufu [2] = target: Flag-tagged Sufu (UniProt Q9UMX1); test: co-IP; NIH3T3 cells transfected with HA-Gli1 or HA-Gli2 and Flag-Sufu, without exogenous Hck; immunoprecipitated with anti-Flag; western blot with anti-HA or anti-Flag; bands quantified with ImageJ against the input

Sequence of UniProt Q9UMX1 (Q9UMX1 whole entry): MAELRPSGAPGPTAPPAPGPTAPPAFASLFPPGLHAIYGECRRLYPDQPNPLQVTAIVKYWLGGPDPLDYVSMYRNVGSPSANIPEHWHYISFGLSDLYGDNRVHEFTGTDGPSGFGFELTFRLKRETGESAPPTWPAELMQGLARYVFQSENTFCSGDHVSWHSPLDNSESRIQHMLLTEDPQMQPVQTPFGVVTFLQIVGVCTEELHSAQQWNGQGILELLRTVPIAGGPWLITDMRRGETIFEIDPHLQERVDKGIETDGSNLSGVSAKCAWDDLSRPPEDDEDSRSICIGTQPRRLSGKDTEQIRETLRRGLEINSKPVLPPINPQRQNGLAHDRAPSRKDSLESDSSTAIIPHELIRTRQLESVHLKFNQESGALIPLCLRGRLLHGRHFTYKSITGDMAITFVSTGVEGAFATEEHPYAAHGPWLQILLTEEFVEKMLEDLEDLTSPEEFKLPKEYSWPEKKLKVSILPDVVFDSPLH

Substance: HA-Gli1 (from UniProt P08151 1-1106) (natural protein)
- percent of Gli1 co-precipitated with Sufu (against the input), with co-expressed HA-Hck (Flag-tagged Sufu [1]): 5%
- percent of Gli1 co-immunoprecipitated with Sufu (against the input) (Flag-tagged Sufu [2]): 30%
